{"source": "patent US20090300780A1", "about": "(AbbVie / Abbott, published 2009)", "binders": {"B1": {"name": "alpha D11 humanized antibody (Hum alpha D11), IgG1 form (antibody, V domains shown)", "VH": "EVQLVESGGGLVQPGGSLRLSCAASGFSLTNNNVNWVRQAPGKGLEWVGGVWAGGATDYNSALKSRFTISRDNSKNTAYLQMNSLRAEDTAVYYCARDGGYSSSTLYAMDAWGQGTLVTVSS", "VL": "DIQMTQSPSSLSASVGDRVTITCRASEDIYNALAWYQQKPGKAPKLLIYNTDTLHTGVPSRFSGSGSGTDYTLTISSLQPEDFATYFCQHYFHYPRTFGQGTKVEIK", "notes": "also called Hum αD11; Hum alpha D11 VH / Hum alpha D11Vk"}}, "biological_target": "T1, murine NGF purified from submandibular glands (murine, UniProt P01139 122-239, limits assumed)", "T1 construct": "Native protein purified from tissue; also called NGF neurotrophin", "T1 sequence (P01139 122-239 limits assumed)": "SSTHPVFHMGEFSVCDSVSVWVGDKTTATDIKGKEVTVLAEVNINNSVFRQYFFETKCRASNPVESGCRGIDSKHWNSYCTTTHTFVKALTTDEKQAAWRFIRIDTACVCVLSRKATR", "assay": "ELISA, murine NGF coated at 10 ug/ml, COS supernatants with IgG1, detection by anti-human Cgamma, OD450", "method": "For immobilization on plastic, 96 well Maxi sorb plates were incubated at 4° C. overnight with a solution containing the respective ligands of the two antibodies (the purified recombinant immunoadhesin TrkA Camel and the murine NGF purified from submandibular glands) at a concentration of 10 μg/ml in 0.1M pH 9.6 sodium carbonate buffer.\nAfter one hour of blocking with PBS containing 3% milk (MPBS) at ambient temperature, concentrated supernatants were incubated with serial dilutions (1:2, 1.20; 1:200) and in parallel also with the supernatant of non transfected COS cells (negative control).", "data": [{"binder": "B1", "values": [{"measurement": "binding result", "result": "binds"}]}]}
